B1: CA1 (natural protein, Vigna radiata, UniProt A0A1S3VT00 1-270, looked up)
chain: MGTLGRAFYAVGFWIRETGQAIDRLGSRLQGNYLFQEQLSRHRPLMNLFDKYPSVHKDAFVAPSASLLGDVHVGPASSIWYGCVLRGDVNGIVIGSGTNIQDNSLVHVAKSNLTGKVLPTIIGDNVTVGHSAVLQGCTVEDEAFIGMGATLLDGVYVEKHAMVAAGALVRQNTRIPYGEVWGGNPAKFLRKLTEDEMAFFSQSALNYSNLAQAHAAENAKELEETEFVKVLHKKFAPRGEEYDSILDGGQETPAKLNLQDNVLLDKAPKA
notes: CA1, gamma-carbonic-anhydrase domain subunit of Vigna radiata mitochondrial complex I; 270 residues; residues 3-222 modelled, 223-233 as poly-Ala; also called carbonic-anhydrase-1 subunit; Gamma-CA 1 (A. thaliana name)

Assay in all cases: cryo-EM structure; CI* (~800 kDa assembly intermediate) from V. radiata mitochondrial membranes, digitonin-extracted, amphipol A8-35-stabilised, sucrose gradient; 6 mg/ml in 20 mM HEPES, 150 mM NaCl, 1 mM EDTA, 0.1% digitonin, pH 7.8; nominal resolution 3.9 Å; interfaces of the γCA domain listed from the model with PDBePISA
Details in all cases: both partners purified

For experiment [1], the target named is T1, NU2M (Vigna radiata, UniProt E9KZK9 1-488, S19F | S103F | S104F | P119L | P121S | R123C | H132Y | P143L | S166LL | S221F | …).
T1 construct: NU2M, mitochondrially encoded core PP-module subunit of Vigna radiata complex I; 488 residues; residues 1-487 modelled; 14 TMH; the substitutions are RNA editing sites against the entry, made in the model where the density fitted the edited residue; RNA edits are natural; 'S166LL' is printed so and was read as S166L; also called Nad2 (A. thaliana name)
T1 sequence (looked up): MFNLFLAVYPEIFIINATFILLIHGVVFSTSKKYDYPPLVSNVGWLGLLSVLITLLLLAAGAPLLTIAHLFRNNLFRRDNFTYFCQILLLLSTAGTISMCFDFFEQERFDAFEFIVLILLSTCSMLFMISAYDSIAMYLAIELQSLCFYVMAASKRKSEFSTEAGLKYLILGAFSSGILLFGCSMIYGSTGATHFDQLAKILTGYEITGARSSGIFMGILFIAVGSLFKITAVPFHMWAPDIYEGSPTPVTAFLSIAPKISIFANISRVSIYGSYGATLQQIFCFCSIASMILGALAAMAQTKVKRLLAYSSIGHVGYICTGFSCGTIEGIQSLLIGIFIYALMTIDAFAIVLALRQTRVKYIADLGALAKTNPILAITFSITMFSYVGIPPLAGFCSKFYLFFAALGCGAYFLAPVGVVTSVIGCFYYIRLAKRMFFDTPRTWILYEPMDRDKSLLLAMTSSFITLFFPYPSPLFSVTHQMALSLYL

Experiment [2] addresses T1, NU2M. This is another data set of the same source.
The experiment “CA1” concerns the target B1.

B1: the binding result with NU2M [1] is listed as “binds”.

B2: NDUX1 (natural protein, Vigna radiata, UniProt A0A1S3VI15 1-101, looked up)
chain: MNTDITASTKPEYPVVDRNPPFTKVVGNFSTLDYLRFVTITGVSVTVGYLSGIKPGIRGPSMVTGGLIGVMGGFMYAYQNSAGRLMGFFPNDDEVARHNKK
notes: NDUX1, PP-module accessory subunit of Vigna radiata mitochondrial complex I, named here after Y. lipolytica NUXM; 101 residues; residues 1-100 modelled; 2 TMH; also called homologue of Y. lipolytica NUXM; 20.9 kDa (A. thaliana name)
For B2, the binding result with NU2M [2] and with CA1 was “binds” each time.

B3: NDUC2 (natural protein, Vigna radiata, UniProt A0A1S3UPL8 1-81, looked up)
chain: MVLSATTIGALLGLGTQMYSNALRKLPYMRHPWEHVVGMGLGAVFVNQLLKWEAQVEQDLDKMLEKAKAANERRYIDGDDD
notes: NDUC2, membrane arm accessory subunit of Vigna radiata mitochondrial complex I; 81 residues; residues 5-68 modelled; 2 TMH; also called B14.5b (A. thaliana name)
Consider B3, for which the binding result in the experiment with NU2M [2] and with CA1 was “binds” each time.

These data come from paper PMC7447434, “Atomic structure of a mitochondrial complex I intermediate from vascular plants” (eLife, 2020).
